Measurements taken from patent publication US20120207721A1 (AARHUS UNIVERSITET, published 2012).

Molecular target: T1, soluble insulin receptor (IR) (R&D systems, 28-956) (UniProt P06213 28-956)
T1 construct: extracellular domain; Bought protein, coupled to a CM5 chip by NHS/EDC; It may be the same product as m8; also called soluble IR; immobilized soluble insulin receptor
Assay: SPR (Biacore), soluble IR coupled to CM5 chip, soluble SorCS1 as analyte

B1: soluble full-length extracellular part of SorCS1 (receptor)
chain: SGADQEKAERGEGASRSPRGVLRDGGQQEPGTRERDPDKATRFRMEELRLTSTTFALTGDSAHNQAMVHWSGHNSSVILILTKLYDYNLGSITESSLWRSTDYGTTYEKLNDKVGLKTILSYLYVCPTNKRKIMLLTDPEIESSLLISSDEGATYQKYRLNFYIQSLLFHPKQEDWILAYSQDQKLYSSAEFGRRWQLIQEGVVPNRFYWSVMGSNKEPDLVHLEARTVDGHSHYLTCRMQNCTEANRNQPFPGYIDPDSLIVQDHYVFVQLTSGGRPHYYVSYRRNAFAQMKLPKYALPKDMHVISTDENQVFAAVQEWNQNDTYNLYISDTRGVYFTLALENVQSSRGPEGNIMIDLYEVAGIKGMFLANKKIDNQVKTFITYNKGRDWRLLQAPDTDLRGDPVHCLLPYCSLHLHLKVSENPYTSGIIASKDTAPSIIVASGNIGSELSDTDISMFVSSDAGNTWRQIFEEEHSVLYLDQGGVLVAMKHTSLPIRHLWLSFDEGRSWSKYSFTSIPLFVDGVLGEPGEETLIMTVFGHFSHRSEWQLVKVDYKSIFDRRCAEEDYRPWQLHSQGEACIMGAKRIYKKRKSERKCMQGKYAGAMESEPCVCTEADFDCDYGYERHSNGQCLPAFWFNPSSLSKDCSLGQSYLNSTGYRKVVSNNCTDGVREQYTAKPQKCPGKAPRGLRIVTADGKLTAEQGHNVTLMVQLEEGDVQRTLIQVDFGDGIAVSYVNLSSMEDGIKHVYQNVGIFRVTVQVDNSLGSDSAVLYLHVTCPLEHVHLSLPFVTTKNKEVNATAVLWPSQVGTLTYVWWYGNNTEPLITLEGSISFRFTSEGMNTITVQVSAGNAILQDTKTIAVYEEFRSLRLSFSPNLDDYNPDIPEWRRDIGRVIKKSLVEATGVPGQHILVAVLPGLPTTAELFVLPYQDPAGENKRSTDDLEQISELLIHTLNQNSVHFELKPGVRVLVHAAHLTAAPLVDLTPTHSG
Kd: ~5 nM
